The record followed here is publication PMC6080896.

This assay has as its target Venus-tagged CaV1.1 CI (Ven-CaV1.1 CI) (UniProt P07293). Kind of assay: FRET or BRET.

Chain of Cer-tagged stac3 variant L[111]Δ (natural protein) (Q96MF2 whole entry, stated change not applied): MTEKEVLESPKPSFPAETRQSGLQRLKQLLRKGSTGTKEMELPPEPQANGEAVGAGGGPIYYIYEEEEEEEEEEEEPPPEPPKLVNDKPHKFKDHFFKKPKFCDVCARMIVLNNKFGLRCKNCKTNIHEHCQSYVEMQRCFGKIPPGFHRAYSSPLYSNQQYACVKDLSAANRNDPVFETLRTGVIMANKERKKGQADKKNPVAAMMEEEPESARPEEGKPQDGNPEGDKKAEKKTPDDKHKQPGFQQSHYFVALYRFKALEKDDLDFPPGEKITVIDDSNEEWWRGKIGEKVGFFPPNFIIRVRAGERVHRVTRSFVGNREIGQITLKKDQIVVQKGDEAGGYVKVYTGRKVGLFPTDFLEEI
Chain of Cer-tagged stac3 variant W[284]S (Native American myopathy) (natural protein) (Q96MF2 whole entry, change not shown): as the sequence (Q96MF2 whole entry, stated change not applied) above
Chain of Cer-tagged stac3 variant K[288]* (domain or fragment) (Q96MF2 whole entry, change not shown, the tested form may be a part): as the sequence (Q96MF2 whole entry, stated change not applied) above

Regarding “Cer-tagged stac3 (wild type) (natural protein)”, the Kd (as a rule, the constant that tells how readily two partners part at equilibrium) was 400 nM. “Cer-tagged stac3 variant K[288]* (domain or fragment)”: the fold reduction of binding against WT stac3 was found to be 2 fold. “Cer-tagged stac3 variant L[111]Δ (natural protein)”: the fold weakening of affinity against WT stac3 amounted to 10 fold.

In turn, “Cer-tagged stac3 variant W[284]S (Native American myopathy) (natural protein)” gave a fold weakening of affinity against WT stac3 of 10 fold.
